The values that follow come from the RNAGym collection of RNA variant scans (doi:10.7554/elife.90254).

First the molecules themselves.
B1: LINE1-full (parent)
chain: UACGUAGGUGGUUUUCCCCUGAUAGUGCUAAGGGGGCCUGGAAGUUUGGACUGGGCAGAGCUCAACACAGCGUGGCAAAGUGGCUGUGGCUAGACUGCCUCUCUGGAUUCCUCGUCACUCAGCAGGGCAUCUCUGAGAGAAAUGCC

Variants of B1 are the subject of the data set. Description: self-cleavage, relative activity (ratio to wild type); higher = more cleavage; in vitro, sequencing; the parent is a self-cleaving ribozyme.
Take U45C A141G: the self-cleavage was found to be 1.37. The result for A43U G86U reads 0.08.

Take A43U U46C: the self-cleavage was 1.23. For the variant A43U U46G, the self-cleavage is 1.37. For the variant A43U A69U, the self-cleavage was 0.05. As to U45A, the self-cleavage is 1.21.

Regarding U45C, the self-cleavage was 1.36. With G44A U132C, the self-cleavage stood at 1.31. Consider A43U A59G, for which the self-cleavage is 0.03.

For the variant U45C A79C, the self-cleavage came to 1.23. The result for U45A A94G reads 0.05.

Turning to U45A A94U, the self-cleavage came out at 0.2. The result for U45C A107G reads 1.73; that for U45C C66A, 0.19. A43U A79U: the self-cleavage is 2.2. The result for A43U A79G reads 0.97; that for U45C A142G, 1.26.

For U45A G114U, the self-cleavage was determined as 1.46. Under A43U U134A stands 1.13.

U45C A65C: the self-cleavage is 0.08. The result for A43U A64G reads 0.42.

For A43U, the self-cleavage was 1.26. The result for U45C C61U reads 0.09. In the case of G44C U115A, the self-cleavage turned out to be 1.77.

As to A43U A50G, the self-cleavage came to 1.29. Take G44U A107G: the self-cleavage was 1.7. For G44U, the self-cleavage stood at 1.56. Regarding G44C, the self-cleavage turned out to be 1.22. The result for G44A reads 1.21; that for U45C C95U, 0.2; that for A43G U132A, 1.55.

For the variant A43G U132C, the self-cleavage came to 1.1.

For U45A G89C, the self-cleavage is 0.31. Under A43U U100C stands 1.75; under A43U U100A, 0.84. The result for U45C C116U reads 1.36. For the variant A43U G53C, the self-cleavage came out at 1.03. Under U45C C63A stands 0.11; under U45C C63U, 0.18.

A43U U52A: the self-cleavage amounted to 1.04. For the variant G44U U47C, the self-cleavage was determined as 1.45.

For U45C A138U, the self-cleavage is 1.48.

Regarding U45C A138C, the self-cleavage turned out to be 1.44.

In the case of U45C A138G, the self-cleavage came to 1.47. The result for U45A A124G reads 0.41; that for G44A C90G, 0.01. Consider A43U U132C, for which the self-cleavage stood at 1.26. Turning to U45C C120U, the self-cleavage is 1.45. U45A U52C: the self-cleavage turned out to be 1.46. In the case of A43U U104C, the self-cleavage stood at 1.67. The result for U45C A67U reads 0.12; that for U45A U134C, 1.49. The result for U45A U134A reads 1.11; that for U45A U62A, 0; that for U45A U62C, 0.03. Regarding A43U A77G, the self-cleavage turned out to be 2.1. Turning to U45C G49A, the self-cleavage was determined as 0.77. Under U45C G60C stands 0.03; under U45C G60U, 0.02.

On to G44C A141G, for which the self-cleavage was found to be 1.03. Turning to U45C A57U, the self-cleavage is 0.11. Under U45C A57G stands 0.7; under U45C G48U, 0.9. Under A43U G89A stands 0.06; under G44A A138G, 1.55; under U45C A94G, 0.3.

As for U45C A94C, the self-cleavage worked out at 0.04. A43U A117G: the self-cleavage turned out to be 1.25.

Regarding A43U G82A, the self-cleavage was 1.4.

For U45C A140G, the self-cleavage turned out to be 1.41. In the case of U45C A140C, the self-cleavage was determined as 2.27. Under A43U U45G stands 2.34. The result for G44U A142G reads 1.68; that for A43U U143C, 0.51. The result for A43U G58A reads 0.05. For U45A C146U, the self-cleavage worked out at 1.37.

For the variant G44A G89C, the self-cleavage turned out to be 0.04. Under G44A G89U stands 0.02; under G44A U143C, 1.48; under G44A A79G, 0.99. In the case of G44A A79U, the self-cleavage was found to be 1.89. Under G44A U62C stands 0.02. The result for A43U G60A reads 0.05; that for U45A A57G, 1.01. Turning to U45A A57U, the self-cleavage amounted to 0.08.

In the case of G44A A64G, the self-cleavage came to 0.33. Under G44A A64U stands 0.4. On to G44U A64G, for which the self-cleavage stood at 0.12. For G44U A69G, the self-cleavage worked out at 0.66.

U45C A77G: the self-cleavage came out at 2.62. On to U45A A77G, for which the self-cleavage amounted to 1.56. Under G44A A50G stands 0.9; under U45C A78G, 1.31; under U45A U143A, 1.21.

Consider A43U A94G, for which the self-cleavage stood at 0.12. Under U45C C113A stands 2.37. For the variant U45C C113U, the self-cleavage is 1.15. Under U45A A136G stands 2. Consider U45A A78U, for which the self-cleavage came out at 1.99.

For the variant U45C C146A, the self-cleavage came to 1.56. The result for U45C C146U reads 2.99; that for G44A C113U, 1.8. Under U45C A92G stands 0.08; under G44A A141G, 1.42.

Regarding A43U G54A, the self-cleavage is 0.56. Under U45A U108C stands 1.48; under U45C A59G, 0.1; under U45A A141G, 1.06. Turning to U45A U85A, the self-cleavage came out at 0.06.

As to U45A U91A, the self-cleavage turned out to be 0.46.

As for A43U U119C, the self-cleavage was 1.17.

As for G44A U46A, the self-cleavage is 0.79. The result for A43U U85C reads 0.16; that for A43U U96A, 0.12. Regarding U45A U112C, the self-cleavage amounted to 1.36. The result for A43U U115A reads 1.6; that for U45A A67G, 0.37; that for A43U C98G, 0.06.

U45C C145U: the self-cleavage was determined as 1.5. On to G44A U109C, for which the self-cleavage turned out to be 1.09. In the case of U45A U130A, the self-cleavage came out at 1.38. As for U45C C131U, the self-cleavage was 0.93. The result for U45A A117G reads 1.48. As for U45A A117U, the self-cleavage amounted to 0.76.

A43U U102G: the self-cleavage came to 0.75. The result for A43U U102C reads 0.25; that for U45C G55A, 0.27; that for U45C G55C, 0.1. Take U45A A64U: the self-cleavage stood at 0.37. In the case of U45A A129G, the self-cleavage worked out at 1.26. The result for U45A U109A reads 0.94. For U45A A107G, the self-cleavage was found to be 1.44. For U45C G54U, the self-cleavage stood at 0.11. Under G44A U52C stands 1.32. As to U45C A64G, the self-cleavage is 0.22.

As for G44A U73C, the self-cleavage came to 1.68.

Take U45A G137U: the self-cleavage is 1.77. The result for G44U U96G reads 0.06; that for U45A U132C, 1.93; that for A43G U143A, 1.24. The result for G44A U134C reads 0.92; that for U45C A117U, 1.36. With U45C A117C, the self-cleavage was determined as 2.57. With A43U U47C, the self-cleavage came out at 2.03. The result for A43U U47A reads 1.44; that for A43U C61U, 0.02. The result for A43G U134C reads 1.09. With A43G U134G, the self-cleavage came to 0.97. The result for A43U C99U reads 0.2. For G44U U109C, the self-cleavage was 1.31. The result for U45A A121U reads 0.99. On to U45A A121C, for which the self-cleavage was 1.62. Under U45A A121G stands 1.88.

As to U45C C111U, the self-cleavage worked out at 1.51.

A43U G44A: the self-cleavage worked out at 1.61. Under U45C C76A stands 1.22; under A43U A141G, 1.38; under U45A A142G, 1.55. In the case of G44A A121G, the self-cleavage came out at 1.21.

For A43U G105A, the self-cleavage turned out to be 1.21. Under U45C A124G stands 1.18. The result for U45C A124U reads 1.58; that for U45A U87A, 0.09.

Regarding A43U G122A, the self-cleavage is 1.02.

A43U A78C: the self-cleavage stood at 2.35. For A43U A78G, the self-cleavage turned out to be 0.61. With U45A G60A, the self-cleavage stood at 0.03.
